Publication PMC6375729

Assays:
[1] = target: BRD4 first bromodomain (BRD4/BD1) (human) (UniProt O60885); experiment: ITC; peptide titrated into BRD4/BD1 or BRD4/BD2 in the cell; 50 mM HEPES pH 7.5 (at 25°C), 150 mM NaCl, 15°C, stirring at 1,000 rpm; single-site binding model
[2] = target: BRD4 second bromodomain (BRD4/BD2) (human) (UniProt O60885); experiment: as above
[3] = target: BRD4 first bromodomain (BD1), N44-E168 (human) (UniProt O60885); experiment: ITC; peptide in the syringe titrated into protein in the cell; 15 °C; 50 mM HEPES pH 7.5, 150 mM NaCl; single binding site model
[4] = target: BRD4 second bromodomain (BD2), D334-E460 (human) (UniProt O60885); experiment: as above
[5] = target: BRD4 first bromodomain (BRD4/BD1), hexa-His tag cleaved (human) (UniProt O60885); experiment: ITC; peptide (1226 - 1433 μM) in the syringe, protein (36 - 59 μM) in the cell, 15°C, 50 mM HEPES pH 7.5, 150 mM NaCl, single binding site model
[6] = target: BRD4 first bromodomain (BD1), N44-E168 (human) (UniProt O60885); experiment: ITC; temperature series: 30 °C, 150 mM NaCl; [Protein] about 1050-1063 uM and [Peptide] 42-46 uM
[7] = target: BRD4 first bromodomain (BD1), N44-E168 (human) (UniProt O60885); experiment: ITC; temperature series: 20 °C, 150 mM NaCl; [Protein] about 1050-1063 uM and [Peptide] 42-46 uM
[8] = target: BRD4 second bromodomain (BRD4/BD2) (human) (UniProt O60885); experiment: ITC; peptide titrated into BRD4/BD1 or BRD4/BD2 in the cell; 100 mM Na3PO4 pH 8.0, 150 mM NaCl, 15°C, stirring at 1,000 rpm; single-site binding model
[9] = target: BRD4 first bromodomain (BD1), N44-E168 (human) (UniProt O60885); experiment: ITC; temperature series: 5 °C, 150 mM NaCl; the sheet's heads give [Protein] about […] and [Peptide] about 45 uM
[10] = target: BRD4 first bromodomain (BD1), N44-E168 (human) (UniProt O60885); experiment: ITC; temperature and salt series: 15 °C, 150 mM NaCl; the sheet's heads give [Protein] about 1060 uM and [Peptide] 42-51 uM
[11] = target: BRD4 first bromodomain (BD1), N44-E168 (human) (UniProt O60885); experiment: ITC; salt series: 15 °C, 1000 mM NaCl; the sheet's heads give [Protein] 1042 uM and [Peptide] 42 uM
[12] = target: BRD4 first bromodomain (BD1), N44-E168 (human) (UniProt O60885); experiment: ITC; peptide titrated into protein; 100 mM Na3PO4 pH 8.0, 150 mM NaCl; single binding site model
[13] = target: BRD4 second bromodomain (BD2), D334-E460 (human) (UniProt O60885); experiment: as above
[14] = target: BRD4 first bromodomain (BD1), N44-E168 (human) (UniProt O60885); experiment: ITC; salt series: 15 °C, 300 mM NaCl; the sheet's heads give [Protein] 1055 uM and [Peptide] 45 uM
[15] = target: BRD4 first bromodomain (BD1), N44-E168 (human) (UniProt O60885); experiment: ITC; temperature series: 25 °C, 150 mM NaCl; [Protein] about 1050-1063 uM and [Peptide] 42-46 uM
[16] = target: BRD4 first bromodomain (BD1), N44-E168 (human) (UniProt O60885); experiment: ITC; salt series: 15 °C, 450 mM NaCl; the sheet's heads give [Protein] 1085 uM and [Peptide] 45 uM
[17] = target: BRD4 BD2, 334-460 (UniProt O60885); experiment: isothermal titration calorimetry; settings: reference: H3 K9ac/K14ac peptide
[18] = target: BRD4 BD1, 44-168 (UniProt O60885); experiment: isothermal titration calorimetry; settings: reference: H3 K9ac/K14ac peptide

| Substance | Kd [1] [µM] | Kd [2] [µM] | Kd [3] [µM] | stoichiometry N [3] | Kd [4] [µM] | stoichiometry N [4] | other results |
| --- | --- | --- | --- | --- | --- | --- | --- |
| ATRX K1030ac/K1033ac peptide | 87.7 | 25.3 | 87.7 | 0.99 | 25.3 | 0.49 | – |
| E2F1 K117ac/K120ac peptide | 45.8 | 34.8 | 45.8 | 0.9 | 34.8 | 0.56 | – |
| GATA1 K312ac/K315ac peptide | 24.6 | 62.9 | 24.6 | 0.94 | 62.9 | 0.96 | – |
| SIRT7 K272ac/K275ac peptide | – | – | 15.8 | 0.52 | 44.4 | 0.87 | – |
| SRPK1 (K585acY) peptide used for ITC | – | – | – | – | – | – | Kd [5]: 9.9 µM |
| SRPK1 K585ac/K588ac peptide | – | – | – | – | – | – | Kd [6]: 46.3 µM; stoichiometry N [6]: 1.12; Kd [7]: 48.8 µM; stoichiometry N [7]: 1.14; Kd [8]: 29.7 µM; Kd [9]: 49 µM; stoichiometry N [9]: 1.01; Kd [10]: 45.7 µM; stoichiometry N [10]: 1.16; Kd [11]: 71.4 µM; stoichiometry N [11]: 0.96; stoichiometry N [12]: 0.92; Kd [13]: 29.7 µM; stoichiometry N [13]: 1.11; Kd [14]: 48.5 µM; stoichiometry N [14]: 1.02; Kd [15]: 40.2 µM; stoichiometry N [15]: 1.12; Kd [16]: 58.5 µM; stoichiometry N [16]: 1.01 |
| TOP2A K1201ac/K1204ac peptide | 19.5 | 63.3 | 19.5 | 0.85 | 63.3 | 0.51 | – |
| histone H3 (from UniProt P68431) H3 K9ac/pS10/K14ac peptide | – | – | – | – | – | – | binding against the reference ([17]; sites S10): lost; binding against the reference ([18]; sites S10): same |
| histone H3 (from UniProt P68431) H3 K9ac/pT11/K14ac peptide | – | – | – | – | – | – | binding against the reference ([17]; sites T11): lost; binding against the reference ([18]; sites T11): lost |
